Data published in the supplement of paper PMC9170038.

Tested on: K4 kissing-loop RNA reporter
Test: apparent KD of K4 kissing-loop reporter; higher = weaker reporter binding
Details: Eterna round: R107
Experimental: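 RNA-MaP round R107: designed RNA switches with theophylline, tryptophan, arginine or FMN aptamers are transcribed on-chip within common flanks. They are titrated with a labelled K4 kissing-loop RNA reporter in RNA-MaP buffer (100 mM Tris pH 7.5, 80 mM KCl, 4 mM MgCl2), without ligand or with the indicated ligand. Median apparent KD per design.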

[1] = input ligand: theophylline 20 uM
[2] = input ligand: tryptophan 2.4 mM
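Further: bound reporter read as fluorescence of individual clusters on recovered sequencing chips by microscopy, with normalized cluster intensities fitted with a binding model.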

UGAUACCAGACGGCCGCCACUUCUGCAAGUCAAAGACUUGCCAAGGGAAUCGUCCAGUGAUGUUGGAGGACCGGGUCUGGUAUCU [FiskerMod 3 - Jieux - Exclusion - Tryptophan B]
apparent KD of K4 kissing-loop reporter (input ligand: FMN 200 uM): 0.88 µM | apparent KD of K4 kissing-loop reporter (input ligand: arginine 13.2 mM): 0.445 µM | apparent KD of K4 kissing-loop reporter (input ligand: none): 0.817 µM | apparent KD of K4 kissing-loop reporter [1]: 0.585 µM | apparent KD of K4 kissing-loop reporter [2]: 0.668 µM

UGAUACCAGACUGAUACCAGCAAGUGAUGUUUGCUGAUCUAAAGCAGUCAAAGACUGCCUUGCCCUUGGCAGCAGUCUGGUAUCU [TheoBX 25 #SwitchBubble #StaticStem]
apparent KD of K4 kissing-loop reporter (input ligand: FMN 200 uM): 0.0923 µM | apparent KD of K4 kissing-loop reporter (input ligand: arginine 13.2 mM): 0.0817 µM | apparent KD of K4 kissing-loop reporter (input ligand: none): 0.0966 µM | apparent KD of K4 kissing-loop reporter [1]: 0.156 µM | apparent KD of K4 kissing-loop reporter [2]: 0.0811 µM

UGAUACCAGACUGAUACCAGCUAGUGAUGUUAGCUAAAAUCAGGGUCAAAGACCCUGUCUGGCCCUUGGCAGCAGUCUGGUAUCU [TheoBX 10 #SwitchBubble #StaticStem]
apparent KD of K4 kissing-loop reporter (input ligand: FMN 200 uM): 0.137 µM | apparent KD of K4 kissing-loop reporter (input ligand: arginine 13.2 mM): 0.12 µM | apparent KD of K4 kissing-loop reporter (input ligand: none): 0.134 µM | apparent KD of K4 kissing-loop reporter [1]: 0.191 µM | apparent KD of K4 kissing-loop reporter [2]: 0.12 µM

UGAUACCAGGCGGCCGCCACUCCCGCAGGUCAAAGACCUGCGAAGCUGGUUCUUCAGUGAUGUUGGAGGACCGGGCCUGGUAUCU [FiskerMod 25 - Jieux - Exclusion - Tryptophan B]
apparent KD of K4 kissing-loop reporter (input ligand: FMN 200 uM): 0.253 µM | apparent KD of K4 kissing-loop reporter (input ligand: arginine 13.2 mM): 0.211 µM | apparent KD of K4 kissing-loop reporter (input ligand: none): 0.236 µM | apparent KD of K4 kissing-loop reporter [1]: 0.232 µM | apparent KD of K4 kissing-loop reporter [2]: 0.494 µM

UGAUAGGACAGAAGGAGCGAGGAGUGAUGUUCCUCAAAAGGUCUAGCAAAGCUAGACCCUCCUCAGGUAGGUCGCUGUCCUAUCU [ArgBX 1 #Palindromic #SwitchBubble #StaticStem]
apparent KD of K4 kissing-loop reporter (input ligand: FMN 200 uM): 0.174 µM | apparent KD of K4 kissing-loop reporter (input ligand: arginine 13.2 mM): 0.162 µM | apparent KD of K4 kissing-loop reporter (input ligand: none): 0.167 µM | apparent KD of K4 kissing-loop reporter [1]: 0.232 µM | apparent KD of K4 kissing-loop reporter [2]: 0.158 µM

UGAUAGGACAGAAGGAGCGGAAGCUAGUCAAAGACUAGCAAACGUUAAACAGGAGUGAUGUUCCAGGUAGGUCGCUGUCCUAUCU [ArgBX 23 #SwitchBubble #StaticStem]
apparent KD of K4 kissing-loop reporter (input ligand: FMN 200 uM): 0.124 µM | apparent KD of K4 kissing-loop reporter (input ligand: arginine 13.2 mM): 0.115 µM | apparent KD of K4 kissing-loop reporter (input ligand: none): 0.126 µM | apparent KD of K4 kissing-loop reporter [1]: 0.133 µM | apparent KD of K4 kissing-loop reporter [2]: 0.119 µM

UGAUAGGACAGAAGGAGCGGAAGCUAGUCAAAGACUAGCACGUUAAUAACAGGAGUGAUGUUCCAGGUAGGUCGCUGUCCUAUCU [ArgBX 24 #SwitchBubble #StaticStem]
apparent KD of K4 kissing-loop reporter (input ligand: FMN 200 uM): 0.126 µM | apparent KD of K4 kissing-loop reporter (input ligand: arginine 13.2 mM): 0.118 µM | apparent KD of K4 kissing-loop reporter (input ligand: none): 0.136 µM | apparent KD of K4 kissing-loop reporter [1]: 0.118 µM | apparent KD of K4 kissing-loop reporter [2]: 0.113 µM

UGAUAGGACAGAAGGAGCGGAAGUGAUGUUUCCAAAAGGUAAGGUCGACAAAGUCGACCCUUCCAGGUAGGUCGCUGUCCUAUCU [ArgBX 11 #Palindromic #SwitchBubble #StaticStem]
apparent KD of K4 kissing-loop reporter (input ligand: FMN 200 uM): 0.0885 µM | apparent KD of K4 kissing-loop reporter (input ligand: arginine 13.2 mM): 0.102 µM | apparent KD of K4 kissing-loop reporter (input ligand: none): 0.0928 µM | apparent KD of K4 kissing-loop reporter [1]: 0.0892 µM | apparent KD of K4 kissing-loop reporter [2]: 0.0824 µM

UGAUAGGACAGAAGGAGCGGCAGUGAUGUUGCCAAAAGGGUAAGGUGUCAAAAGACACCCUGCCAGGUAGGUCGCUGUCCUAUCU
apparent KD of K4 kissing-loop reporter (input ligand: FMN 200 uM): 0.166 µM | apparent KD of K4 kissing-loop reporter (input ligand: arginine 13.2 mM): 0.173 µM | apparent KD of K4 kissing-loop reporter (input ligand: none): 0.162 µM | apparent KD of K4 kissing-loop reporter [1]: 0.163 µM | apparent KD of K4 kissing-loop reporter [2]: 0.134 µM

UGAUAGGACAGAAGGAGCGGGCUAGUCAAAGACUAGCAAACGUUAAUAACAGGAGUGAUGUUCCAGGUAGGUCGCUGUCCUAUCU [ArgBX 25 #SwitchBubble #StaticStem]
apparent KD of K4 kissing-loop reporter (input ligand: FMN 200 uM): 0.136 µM | apparent KD of K4 kissing-loop reporter (input ligand: arginine 13.2 mM): 0.12 µM | apparent KD of K4 kissing-loop reporter (input ligand: none): 0.143 µM | apparent KD of K4 kissing-loop reporter [1]: 0.138 µM | apparent KD of K4 kissing-loop reporter [2]: 0.12 µM

UGAUAGGACAGAAGGAGCGGUAGUGAUGUUGCCAAAAGAAUAAGGUGUCAAAAGACACCCUACCAGGUAGGUCGCUGUCCUAUCU
apparent KD of K4 kissing-loop reporter (input ligand: FMN 200 uM): 0.346 µM | apparent KD of K4 kissing-loop reporter (input ligand: arginine 13.2 mM): 0.368 µM | apparent KD of K4 kissing-loop reporter (input ligand: none): 0.423 µM | apparent KD of K4 kissing-loop reporter [1]: 0.429 µM | apparent KD of K4 kissing-loop reporter [2]: 0.289 µM

UGAUUGCCAGUGAUGUUGGCAUAUACUGAAGGAGCGCGUGAAAACGCAGGUAGGUCGCAGUUCCUUGCCAAUUGAUCGAAAGAUC [KL-XArg-A1]
apparent KD of K4 kissing-loop reporter (input ligand: FMN 200 uM): 0.13 µM | apparent KD of K4 kissing-loop reporter (input ligand: arginine 13.2 mM): 0.138 µM | apparent KD of K4 kissing-loop reporter (input ligand: none): 0.137 µM | apparent KD of K4 kissing-loop reporter [1]: 0.15 µM | apparent KD of K4 kissing-loop reporter [2]: 0.127 µM

UGAUUUAACUGAAGGAGCGGCAAUAGAGAAGGAAAUAUAGUGAUGUUAUAUAAGAGAGAGAGCCAGGUAGGUCGCAGAGGGAGGA [ExArgB.F]
apparent KD of K4 kissing-loop reporter (input ligand: FMN 200 uM): 0.181 µM | apparent KD of K4 kissing-loop reporter (input ligand: arginine 13.2 mM): 0.128 µM | apparent KD of K4 kissing-loop reporter (input ligand: none): 0.137 µM | apparent KD of K4 kissing-loop reporter [1]: 0.171 µM | apparent KD of K4 kissing-loop reporter [2]: 0.151 µM

UGCACGGGCUCGGCCGCCACUCCCGCGGGUCGGAAGGUCCGCUACUGAGUGAUGUUCGGUUGGAGGAGGACCGGGAGCCCGUGCA [#2 Exclusion - Tryptophan B Attempt #26 (HarryS)]
apparent KD of K4 kissing-loop reporter (input ligand: FMN 200 uM): 0.135 µM | apparent KD of K4 kissing-loop reporter (input ligand: arginine 13.2 mM): 0.109 µM | apparent KD of K4 kissing-loop reporter (input ligand: none): 0.104 µM | apparent KD of K4 kissing-loop reporter [1]: 0.104 µM | apparent KD of K4 kissing-loop reporter [2]: 0.0885 µM

UGCGCUGUGUACUGAAAUGUUCUGCGGGAUACCAGAGUCUUUUUAUUCCCUUGGCAGCUUGAGUGAUGUUUGAUGCCGUUCUUGU [tffeymullin]
apparent KD of K4 kissing-loop reporter (input ligand: FMN 200 uM): 0.494 µM | apparent KD of K4 kissing-loop reporter (input ligand: arginine 13.2 mM): 0.279 µM | apparent KD of K4 kissing-loop reporter (input ligand: none): 0.513 µM | apparent KD of K4 kissing-loop reporter [1]: 0.521 µM | apparent KD of K4 kissing-loop reporter [2]: 0.435 µM

UGGACCUGACUCGAUAAGAGUCAAUGAGAUACCAGUGACGAAAGUCACCCUUGGCAGCUCACUGCCAGUGAUGUUGGUAGGUCCU [#SwitchBubble 3 #StaticStem]
apparent KD of K4 kissing-loop reporter (input ligand: FMN 200 uM): 1.25 µM | apparent KD of K4 kissing-loop reporter (input ligand: arginine 13.2 mM): 0.919 µM | apparent KD of K4 kissing-loop reporter (input ligand: none): 1.3 µM | apparent KD of K4 kissing-loop reporter [1]: 0.738 µM | apparent KD of K4 kissing-loop reporter [2]: 1.07 µM

UGGACGAAUAUCGAUAAGAUAUUCUGGGAUACCAGUGACGAAAGUCACCCUUGGCAGCUCAACUGCCAGUGAUGUUGGUAGUCCA [Astros-Elo-mod#3]
apparent KD of K4 kissing-loop reporter (input ligand: FMN 200 uM): 0.238 µM | apparent KD of K4 kissing-loop reporter (input ligand: arginine 13.2 mM): 0.142 µM | apparent KD of K4 kissing-loop reporter (input ligand: none): 0.218 µM | apparent KD of K4 kissing-loop reporter [1]: 0.162 µM | apparent KD of K4 kissing-loop reporter [2]: 0.165 µM

UGGAGUUGACGAAAAGUCAACUCCCGAGAAGGAGCGGACGAAAGUCCAGGUAGGUCGCUCGCUACCAGUGAUGUUGGUACUGAAA
apparent KD of K4 kissing-loop reporter (input ligand: FMN 200 uM): 0.125 µM | apparent KD of K4 kissing-loop reporter (input ligand: arginine 13.2 mM): 0.18 µM | apparent KD of K4 kissing-loop reporter (input ligand: none): 0.126 µM | apparent KD of K4 kissing-loop reporter [1]: 0.16 µM | apparent KD of K4 kissing-loop reporter [2]: 0.105 µM

UGGAUAUCGUUUAGUCUGGUGAGCUCAGAUACCAGACUAGCGAUGGUCCCUUGGCAGCUGAUUACGAUUGAGUGAUGUUCAAUCG [Theo A Ex t9c]
apparent KD of K4 kissing-loop reporter (input ligand: FMN 200 uM): 0.168 µM | apparent KD of K4 kissing-loop reporter (input ligand: arginine 13.2 mM): 0.152 µM | apparent KD of K4 kissing-loop reporter (input ligand: none): 0.172 µM | apparent KD of K4 kissing-loop reporter [1]: 0.16 µM | apparent KD of K4 kissing-loop reporter [2]: 0.158 µM

UGGCCUUAAAUUCUAGGAUUAGCGACGUACAAGGAUAUUCGUCAUCGAAGAAGGUGUAGCUAGGAGAGUGAUGUUUUCCAUCGCC [theeternabot_sameState_KL_FMN_A_15]
apparent KD of K4 kissing-loop reporter (input ligand: FMN 200 uM): 0.64 µM | apparent KD of K4 kissing-loop reporter (input ligand: arginine 13.2 mM): 0.449 µM | apparent KD of K4 kissing-loop reporter (input ligand: none): 0.549 µM | apparent KD of K4 kissing-loop reporter [1]: 0.576 µM | apparent KD of K4 kissing-loop reporter [2]: 0.504 µM

UGGCGUUGAACCGCCGAAUCGCUGUGAGAAGGAGCGGUAAAAUUGCCAGGUAGGUCGCUCACAGCUUCACAGUGAUGUUGUGGAA [Enxeisen]
apparent KD of K4 kissing-loop reporter (input ligand: FMN 200 uM): 0.248 µM | apparent KD of K4 kissing-loop reporter (input ligand: arginine 13.2 mM): 0.161 µM | apparent KD of K4 kissing-loop reporter (input ligand: none): 0.408 µM | apparent KD of K4 kissing-loop reporter [1]: 0.212 µM | apparent KD of K4 kissing-loop reporter [2]: 0.188 µM
